In the assay the target is PSR2-PDF1-Cα heterotrimer (not stated | A. thaliana | human) (UniProt E0W4V5). Put plainly: cryo-EM structure.

Usually stoichiometry N stands for a count of units in the complex or per binding partner. Turning to “PSR2-PDF1-Cα heterotrimer (from UniProt E0W4V5;P67775) (complex)”, the stoichiometry N came out at 2.

The values above are taken from publication doi:10.1101/2025.06.14.659724.
